For test [1], the target named is T1, Recombinant Human EGF R/Fc Chimera, CF (human, UniProt P00533 25-645; P01857 100-330 = IgG part).
T1 construct: range 25-645;range 100-330; R&D systems product; also called hEGFR/Fc
As to the kind of experiment: phage panning and phage ELISA on hEGFR/Fc (TACI_d2 mutant binding to the extracellular domain of human EGFR). Background: In an ELISA, binding on a coated surface is turned into a signal by an enzyme label.

Test [2] has as its target T2, Recombinant Human VEGF165 (human, UniProt P15692-4 27-191).
T2 construct: Isoform VEGF165; also called hVEGF
The test can be described thus: phage panning and phage ELISA on hVEGF.

Test [3] addresses T3, Recombinant Human TNF-α (human, UniProt P01375 77-233).
T3 construct: also called hTNF-α
The test can be described thus: phage panning and phage ELISA on hTNF-α.

For test [4], the target named is T2, Recombinant Human VEGF165. As to the kind of experiment: SPR, Biacore 3000, hVEGF immobilized on sensor chip, mutant applied at various concentrations. The text has this: Examples of the determination-calculation system of surface plasmon resonance can include, but not limited to, Biacore system (GE Healthcare Japan Corp.). Procedures for the method using Biacore system are as follows: target molecules are immobilized onto a sensor chip of Biacore system by amine coupling; the target molecules are contacted with peptides at a plurality of peptide concentrations; the interaction therebetween is detected by surface plasmon resonance; a series of association and dissociation reactions is drawn in a sensorgram with time as the abscissa against the amount of binding (RU) as the ordinate; the sensorgram drawn at the plurality of peptide concentrations is fit to a 1:1 Langmuir model using BIAevaluation software (manufactured by GE Healthcare Japan Corp.) to calculate various rate parameters; and the dissociation constant is calculated from various rate parameters thus calculated.
The gene of the hVEGF-binding TACI_d2 mutant (No. 9 in FIG. 4: SEQ ID NO: 10 in the Sequence Listing) obtained in Example 2 was amplified by PCR and inserted to a vector pET-32a for expression in Escherichia coli (Novagen, Merck KGaA). […] The affinity of the mutant was determined by a surface plasmon resonance method using Biacore 3000 (GE Healthcare Japan Corp.). […] The dissociation constant of the mutant for hVEGF was determined from the obtained sensorgram.
In general terms: In SPR one partner is held on a chip, and binding of the other changes the refractive index at the surface.

For test [5], the target named is T4, Recombinant Human EphA2, CF (human, UniProt P29317 25-534).
T4 construct: Bought recombinant protein; also called hEphA2; recombinant hEphA2
The test can be described thus: phage ELISA, hEphA2 immobilized on a Maxisorp plate, two-fold dilutions of phage stock, anti-M13-HRP, OD405 nm [A) (1]. How it is done:
(§1) As to 3 clones (α-EphA2 #1 to #3: corresponding to SEQ ID NOs: 3 to 5, respectively, in the Sequence Listing and to Nos. 2 to 4, respectively in FIG. 4) selected from the Escherichia coli colonies after the final round of panning with hEphA2 as a target molecule, an Escherichia coli suspension with OD_{600 nm}=0.3 was prepared using 2×YT/Amp/1% Glu. The Escherichia coli cells of each clone were shake-cultured at 37° C. and allowed to grow until OD_{600 nm}=0.5. A sufficient amount of helper phages M13K07 was added thereto to infect the cells at 37° C. for 30 minutes. After addition of 2×YT/Amp/Kan/0.25 mM IPTG, the helper phage-infected Escherichia coli was shake-cultured overnight at 22° C. 20% PEG/2.5 M NaCl solution was added to the recovered culture supernatant to precipitate phages. The precipitated phages were suspended in PBS. This phage stock solution and a series of two-fold dilutions with PBS were used in phage ELISA. An Escherichia coli TG-1 strain having a pCANTAB 5E vector containing the wild-type TACI_d2 gene was also subjected to the same operation as above to prepare phages.
TACI_d2 mutant-displaying phages were added to these Maxisorp plates and reacted for 2 hours. Each Maxisorp plate was washed with TBST. Then, an Anti-M13 antibody diluted 5000-fold was added thereto. After washing of the Maxisorp plate with TBST again, the amount of a phage bound with the protein solid-phase immobilized on the plate was detected as absorbance at a wavelength of 405 nm using ELISA POD.

In test [6] the target is T5, human EphA2 expressed on cell surface (human, UniProt P29317 24-976).
T5 construct: whole, on cells; also called human EphA2-expressing cells
The test can be described thus: flow cytometry, phage stock on transfected HEK293T cells, anti-M13 antibody and fluorescein anti-mouse IgG, FL1 [A) (2]. How it is done:
as §1, with “The” for “As to 3 clones (α-EphA2 #1 to #3: corresponding to SEQ ID NOs: 3 to 5, respectively, in the Sequence Listing and to Nos. 2 to 4, respectively in FIG. 4) selected from the Escherichia coli colonies after the final round of panning with hEphA2 as a target molecule, an Escherichia coli suspension with OD_{600 nm}=0.3 was prepared using 2×YT/Amp/1% Glu. The”
(§2) The transfected cells were recovered. The recovered cells were suspended in a FACS buffer (PBS containing 5% FBS) and applied to a nylon mesh. The solution was dispensed in an amount of 5×10⁵ cells/well to 96 Well Cell Culture Cluster Round Bottom With Lid (manufactured by Costar, Corning Inc.) and centrifuged to remove a supernatant. The phage stock solution prepared in the paragraph 1) of Example 4 was added to the resulting cells at a concentration of 50 μL/well, and the mixture was left standing at 4° C. for 30 minutes. […] Fluorescently stained cells were detected.
(In general: Flow cytometry measures light scatter and fluorescence of single cells or particles in a stream.)

The target in test [7] is T5, human EphA2 expressed on cell surface. As to the kind of experiment: flow cytometry, phage stock on transfected HEK293T cells, anti-M13 antibody and fluorescein anti-mouse IgG, FL1 [B) (4]. How it is done: as §1, with “The” for “As to 3 clones (α-EphA2 #1 to #3: corresponding to SEQ ID NOs: 3 to 5, respectively, in the Sequence Listing and to Nos. 2 to 4, respectively in FIG. 4) selected from the Escherichia coli colonies after the final round of panning with hEphA2 as a target molecule, an Escherichia coli suspension with OD_{600 nm}=0.3 was prepared using 2×YT/Amp/1% Glu. The”
as §2

Test [8] addresses T6, IgG-Free, Protease-Free Bovine Serum Albumin (bovine, UniProt P02769 25-607).
T6 construct: also called BSA
As to the kind of experiment: phage ELISA, BSA immobilized on a Maxisorp plate, two-fold dilutions of phage stock, anti-M13-HRP, OD405 nm [A) (2]. How it is done:
as §1
TACI_d2 mutant-displaying phages were added to these Maxisorp plates and reacted for 2 hours. […] After washing of the Maxisorp plate with TBST again, the amount of a phage bound with the protein solid-phase immobilized on the plate was detected as absorbance at a wavelength of 405 nm using ELISA POD.

Test [9] concerns the target T5, human EphA2 expressed on cell surface. As to the kind of experiment: flow cytometry, phage stock on transfected HEK293T cells, anti-M13 antibody and fluorescein anti-mouse IgG, FL1 [A) (1]. How it is done: as §1, with “The” for “As to 3 clones (α-EphA2 #1 to #3: corresponding to SEQ ID NOs: 3 to 5, respectively, in the Sequence Listing and to Nos. 2 to 4, respectively in FIG. 4) selected from the Escherichia coli colonies after the final round of panning with hEphA2 as a target molecule, an Escherichia coli suspension with OD_{600 nm}=0.3 was prepared using 2×YT/Amp/1% Glu. The”
as §2

T4 sequence (P29317 25-534 limits assumed): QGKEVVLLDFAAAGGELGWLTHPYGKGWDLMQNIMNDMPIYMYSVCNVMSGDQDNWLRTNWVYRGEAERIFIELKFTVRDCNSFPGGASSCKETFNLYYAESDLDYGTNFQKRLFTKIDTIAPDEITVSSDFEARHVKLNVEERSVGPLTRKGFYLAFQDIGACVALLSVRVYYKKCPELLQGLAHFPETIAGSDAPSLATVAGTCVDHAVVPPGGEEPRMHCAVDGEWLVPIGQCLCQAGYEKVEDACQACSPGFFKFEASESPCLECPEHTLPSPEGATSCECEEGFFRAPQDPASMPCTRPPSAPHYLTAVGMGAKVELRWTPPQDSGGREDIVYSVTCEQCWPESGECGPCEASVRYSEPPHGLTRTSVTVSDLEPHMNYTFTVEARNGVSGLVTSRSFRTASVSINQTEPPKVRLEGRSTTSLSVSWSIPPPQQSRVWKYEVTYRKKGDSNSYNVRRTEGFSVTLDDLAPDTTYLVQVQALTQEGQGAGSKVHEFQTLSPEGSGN
T5 sequence (P29317 24-976): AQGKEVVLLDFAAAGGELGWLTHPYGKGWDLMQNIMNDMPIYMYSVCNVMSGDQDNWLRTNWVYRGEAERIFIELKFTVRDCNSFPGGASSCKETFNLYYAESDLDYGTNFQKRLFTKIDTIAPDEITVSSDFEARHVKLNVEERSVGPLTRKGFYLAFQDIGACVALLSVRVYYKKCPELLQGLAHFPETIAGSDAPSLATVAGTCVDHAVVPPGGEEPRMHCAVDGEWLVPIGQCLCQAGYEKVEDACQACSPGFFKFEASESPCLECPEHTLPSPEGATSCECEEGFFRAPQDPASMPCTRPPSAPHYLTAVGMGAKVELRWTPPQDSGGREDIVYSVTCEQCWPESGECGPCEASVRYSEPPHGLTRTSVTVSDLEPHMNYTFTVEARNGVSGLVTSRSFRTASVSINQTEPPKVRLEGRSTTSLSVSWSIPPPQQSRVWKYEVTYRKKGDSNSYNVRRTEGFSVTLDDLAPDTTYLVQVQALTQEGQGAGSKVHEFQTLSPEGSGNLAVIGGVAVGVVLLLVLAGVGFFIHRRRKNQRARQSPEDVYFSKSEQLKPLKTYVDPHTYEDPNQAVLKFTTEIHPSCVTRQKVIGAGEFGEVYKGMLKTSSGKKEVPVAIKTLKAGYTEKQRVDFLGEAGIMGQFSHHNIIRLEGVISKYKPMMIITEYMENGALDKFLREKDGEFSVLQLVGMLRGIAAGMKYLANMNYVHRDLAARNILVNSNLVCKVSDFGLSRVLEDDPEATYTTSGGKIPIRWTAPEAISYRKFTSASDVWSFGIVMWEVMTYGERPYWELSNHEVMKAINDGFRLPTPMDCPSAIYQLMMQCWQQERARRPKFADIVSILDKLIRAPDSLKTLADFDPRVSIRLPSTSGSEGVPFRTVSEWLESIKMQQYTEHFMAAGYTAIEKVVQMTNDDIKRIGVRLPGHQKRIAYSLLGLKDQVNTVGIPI
T2 sequence (P15692 other isoform, or with tags, fused parts or gaps limits assumed): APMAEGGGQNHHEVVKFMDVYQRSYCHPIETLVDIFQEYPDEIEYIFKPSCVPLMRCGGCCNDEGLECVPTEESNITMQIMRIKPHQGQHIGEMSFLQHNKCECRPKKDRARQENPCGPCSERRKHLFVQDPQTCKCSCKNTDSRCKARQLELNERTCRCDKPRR
T3 sequence (P01375 77-233 limits assumed): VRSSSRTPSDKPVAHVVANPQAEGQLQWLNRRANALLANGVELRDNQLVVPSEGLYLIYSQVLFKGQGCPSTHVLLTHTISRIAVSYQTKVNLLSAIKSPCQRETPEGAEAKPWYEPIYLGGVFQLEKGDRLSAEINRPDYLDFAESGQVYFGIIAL
T6 sequence (P02769 25-607 limits assumed): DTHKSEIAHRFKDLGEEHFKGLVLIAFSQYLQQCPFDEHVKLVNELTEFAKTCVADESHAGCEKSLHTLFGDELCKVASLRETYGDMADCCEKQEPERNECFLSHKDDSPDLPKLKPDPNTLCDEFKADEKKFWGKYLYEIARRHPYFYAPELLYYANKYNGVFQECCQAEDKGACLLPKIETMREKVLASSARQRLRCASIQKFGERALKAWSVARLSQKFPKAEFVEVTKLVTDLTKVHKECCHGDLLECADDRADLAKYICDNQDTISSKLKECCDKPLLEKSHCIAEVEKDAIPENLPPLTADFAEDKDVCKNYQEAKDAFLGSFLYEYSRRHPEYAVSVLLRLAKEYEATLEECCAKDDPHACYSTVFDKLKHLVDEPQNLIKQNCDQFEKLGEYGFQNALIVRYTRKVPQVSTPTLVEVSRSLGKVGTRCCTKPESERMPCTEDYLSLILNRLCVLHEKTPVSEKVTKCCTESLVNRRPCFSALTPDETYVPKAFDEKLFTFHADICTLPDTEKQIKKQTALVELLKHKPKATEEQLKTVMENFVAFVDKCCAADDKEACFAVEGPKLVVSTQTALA

Regarding SLSCRKEQGKSYGAIMYDCSSCASYCGEHPWHCAYFCEN (designed binder) [human EGFR-binding peptide (1)], the binding result in test [1] is reported as “binds”. For the molecule SLSCRKEQGKDYMVFGQDCHSCASWCGKHPVACAYFCEN (designed binder) [human VEGF-binding peptide (6)], the binding result in test [2] is recorded as “binds”. For the molecule SLSCRKEQGKSYTSEWFDCASCASKYGKHPLVCAYFCEN (designed binder) [human TNFα-binding peptide (3)], the binding result in [3] was “binds”. With SLSCRKEQGKNYIHQQWDCASCASECGGHPNYCAYFCEN (designed binder) [human EGFR-binding peptide (3)], the binding result in test [1] is “binds”.

B1: hVEGF-binding TACI_d2 mutant (No. 9 in FIG. 4), purified monomer (designed binder)
chain: SLSCRKEQGKMYDLYGFDCRSCASMCGKHPDLCAYFCEN
notes: Expressed from pET-32a in E. coli Origami B; thioredoxin tag and His tag removed by thrombin cleavage; monomer peak of size exclusion chromatography used; also called the mutant
The term Kd denotes the concentration at which binding is half-saturated. Turning to B1, the Kd in test [4] came to 14 µM. Consider SLSCRKEQGKMYDLYGFDCRSCASMCGKHPDLCAYFCEN (designed binder, The purified free form is m26) [human VEGF-binding peptide (2), phage-displayed], for which the binding result in test [2] is “binds”. With SLSCRKEQGKHYLLKEYDCDSCASECGYHPDYCAYFCEN (designed binder, also called α-EphA2 #3) [α-EphA2 TACI_d2 #3], the binding result in [5] is “binds”. In the case of SLSCRKEQDKTYIEYGFDCRSCASGCGGHPLMCAYFCEN (designed binder) [human TNFα-binding peptide (2)], the binding result in [3] was “binds”. For the molecule SLSCRKEQGKMYLLKEWDCASCASACGNHPHYCAYFCEN (designed binder, also called α-EphA2 #2) [α-EphA2 TACI_d2 #2], the binding result in test [5] and in [6] was “binds” each time. Turning to SLSCRKEQGKQYMAGHFDCNSCASRYGHHPLMCAYFCEN (designed binder) [human TNFα-binding peptide (1)], the binding result in test [3] is recorded as “binds”. Turning to SLSCRKEQGKIYMTWHDDCHSCASLCGSHPLFCAYFCEN (designed binder) [human VEGF-binding peptide (5)], in [2], the binding result is reported as “binds”. Take SLSCRKEQGKEYGAIAWDCSSCASYCGAHPFECAYFCEN (designed binder) [human EGFR-binding peptide (2)]: the binding result in test [1] is on record as “binds”.

For SLSCRKEQGKIYNQYGFDCKSCASWCGKHPDMCAYFCEN (designed binder) [human VEGF-binding peptide (4)], the binding result in [2] is recorded as “binds”. In the case of SLSCRKEQGKFYDHLLRDCISCASICGQHPKQCAYFCENKLR (receptor, UniProt O14836 68-109, looked up, also called WT) [wild-type TACI_d2], the binding result in [5], in test [7] and in test [8] was “no binding” each time. Consider SLSCRKEQGKQYLLREWDCDSCASECGSHPHYCAYFCEN (designed binder, also called α-EphA2 #1) [α-EphA2 TACI_d2 #1], for which the binding result in test [5] and in test [9] was “binds” in each case. Regarding SLSCRKEQGKMYMVWTQDCKSCASWCGAHPVACAYFCEN (designed binder) [human VEGF-binding peptide (3)], in test [2], the binding result is “binds”. Take SLSCRKEQGKWYMTWESDCKSCASWCGSHPFDCAYFCEN (designed binder) [human VEGF-binding peptide (1)]: in test [2], the binding result is listed as “binds”.

Values taken from patent US20130316929A1 (Daiichi Sankyo, published 2013).
